Results published in patent US20240391997A1 (BRIGHTPATH BIOTHERAPEUTICS, published 2024).

Legend:
[1] = target: T1, biotinylated human Tim-3-Fc antigen (in-house preparation) (human, biotinylated); assay: competition ELISA, biotinylated Tim-3-Fc premixed with antibody, binding to coated human Galectin-9
T1 construct: limits of the Tim-3 part not given

[2] = target: T2, human Tim-3 expressed on cells (Jurkat cells stably expressing, Expi293 cells transiently expressing, … (human, UniProt Q8TDQ0 22-301)); assay: flow cytometry on Expi293 cells transiently expressing human Tim-3, KD from MFI curve
T2 construct: whole, on cells; One entry for all cell-surface forms; the cell type is named under assay; also called human Tim-3 expressed on the cell membrane

[3] = target: T1, biotinylated human Tim-3-Fc antigen …; assay: competition ELISA, biotinylated Tim-3-Fc premixed with antibody, binding to coated human Galectin-9; remark: listed apart in the source
[4] = target: T1, biotinylated human Tim-3-Fc antigen …; assay: competition flow cytometry, biotinylated Tim-3-Fc premixed with antibody, binding to phosphatidylserine on apoptotic Jurkat cells (ligand not a protein)
[5] = target: T2, human Tim-3 expressed on cells (Jurkat …); assay: flow cytometry on Jurkat cells stably expressing human Tim-3, KD from MFI curve
[6] = target: T2, human Tim-3 expressed on cells (Jurkat …); assay: flow cytometry on activated human CD8 T cells, KD from MFI curve
[7] = target: T2, human Tim-3 expressed on cells (Jurkat …); assay: flow cytometry on activated human CD4 T cells, KD from MFI curve
[8] = target: T1, biotinylated human Tim-3-Fc antigen …; assay: competition flow cytometry, biotinylated Tim-3-Fc premixed with antibody, binding to phosphatidylserine on apoptotic Jurkat cells (ligand not a protein); remark: listed apart in the source
[9] = target: T1, biotinylated human Tim-3-Fc antigen …; assay: competition ELISA: biotinylated human Tim-3-Fc premixed with the antibody, added to plate-bound human Galectin-9 (blocked ligand); streptavidin-HRP; Binding (%)
[10] = target: T1, biotinylated human Tim-3-Fc antigen …; assay: competition ELISA, biotinylated Tim-3-Fc premixed with antibody, binding to coated human Galectin-9; remark: listed apart in the source
[11] = target: T2, human Tim-3 expressed on cells (Jurkat …); assay: flow cytometry on Jurkat cells stably expressing human Tim-3, KD from MFI curve; remark: listed apart in the source
[12] = target: T1, biotinylated human Tim-3-Fc antigen …; assay: competition flow cytometry, biotinylated Tim-3-Fc premixed with antibody, binding to phosphatidylserine on apoptotic Jurkat cells (ligand not a protein); remark: listed apart in the source
[13] = target: T2, human Tim-3 expressed on cells (Jurkat …); assay: flow cytometry on Expi293 cells transiently expressing human Tim-3, KD from MFI curve; remark: listed apart in the source
[14] = target: T2, human Tim-3 expressed on cells (Jurkat …); assay: flow cytometry on activated human CD4 T cells, KD from MFI curve; remark: listed apart in the source
[15] = target: T2, human Tim-3 expressed on cells (Jurkat …); assay: flow cytometry on activated human CD8 T cells, KD from MFI curve; remark: listed apart in the source

| Binder | inhibition of the binding between human Tim-3 and human Galectin-9 [1] | Kd [2] | IC50 [3] | IC50 [4] | Kd [5] | Kd [6] | Kd [7] | IC50 [8] | IC50 (read off the curve) [9] | IC50 [10] | Kd [11] | IC50 [12] | Kd [13] | Kd [14] | Kd [15] |
| --- | --- | --- | --- | --- | --- | --- | --- | --- | --- | --- | --- | --- | --- | --- | --- |
| Hu621003ct antibody (bispecific antibody, not shown: a dimerising Fc or GST) scFv 1: QVQLQESGGGLVKPGGSLKLSCAASGFTFSSYYMSWVRQTPDKRLEWVATISNSGGSTYYPDSVKDRFTISRDNAKNTLYLQMSSLKSEDTAMYYCARDPYYTNYVPMDYWGQGTMVTVSSGGGGSGGGGSGGGGSGGGGSDIVMTQSPSFLSASVGDRVTITCKASQYVDTYVAWYQQRPGKAPKPLIYSASTRHTGVPSRFSGSGSGTEFTLTISSLQPEDFATYFCAQYSSSPLTFGGGTKLELK scFv 2: QVQLVQSGAEVKKPGASVKVSCKASGYTFTDYYMDWVRQAPGQGLEWLGYIYPNKGGTSYNQKFKGRVTMTTDKSTSTAYMELRSLRSDDTAVYYCARSGYKAYYAMDYWGQGTTVTVSSGGGGSGGGGSGGGGSGGGGSDIVMTQSQKFMSTSVGDRVSITCKASQSVGNNVAWYQQKPGQSPKLLIYYASNRYTGVPDRFTGSGSGTDFTLTISNMQSEDLADYFCQQHYSSPYTFGGGTKLEIK | ≥ 90% | 2.27 nM | 0.819 nM | 32.3 nM | 0.283 nM |  |  |  |  |  |  |  |  |  |  |
| Hu428003ct antibody (bispecific antibody, not shown: a dimerising Fc or GST) scFv 1: QVQLQESGGGLVKPGGSLKLSCAASGFTFSSYYMSWVRQTPDKRLEWVATISNSGGSTYYPDSVKDRFTISRDNAKNTLYLQMSSLKSEDTAMYYCARDPYYTNYVPMDYWGQGTMVTVSSGGGGSGGGGSGGGGSGGGGSDIVMTQSPSFLSASVGDRVTITCKASQYVDTYVAWYQQRPGKAPKPLIYSASTRHTGVPSRFSGSGSGTEFTLTISSLQPEDFATYFCAQYSSSPLTFGGGTKLELK scFv 2: QVQLVQSGAEVKKPGASVKVSCKASGYTFTDYYMDWVRQAPGQGLEWLGYIYPNKGGTSYNQKFKGRVTMTTDKSTSTAYMELRSLRSDDTAVYYCARGGYYSYYSYDYWGQGTTVTVSSGGGGSGGGGSGGGGSGGGGSDIVMTQSQKFMSTSVGDRVSITCKASQSVGNNVAWYQQKPGQSPKLLIYYASNRYTGVPDRFTGSGSGTDFTLTISNMQSEDLADYFCQQHYSSPYTFGGGTKLEIK | ≥ 90% | 2.3 nM | 0.712 nM | 27.3 nM | 0.232 nM | 0.263 nM | 0.279 nM |  |  |  |  |  |  |  |  |
| Hu149003ct antibody (bispecific antibody, not shown: a dimerising Fc or GST) scFv 1: QVQLQESGGGLVKPGGSLKLSCAASGFTFSSYYMSWVRQTPDKRLEWVATISNSGGSTYYPDSVKDRFTISRDNAKNTLYLQMSSLKSEDTAMYYCARDPYYTNYVPMDYWGQGTMVTVSSGGGGSGGGGSGGGGSGGGGSDIVMTQSPSFLSASVGDRVTITCKASQYVDTYVAWYQQRPGKAPKPLIYSASTRHTGVPSRFSGSGSGTEFTLTISSLQPEDFATYFCAQYSSSPLTFGGGTKLELK scFv 2: QVQLVQSGAEVKKPGASVKVSCKASGYTFTDYYMDWVRQAPGQGLEWLGYIYPNKGGTSYNQKFKGRVTMTTDKSTSTAYMELRSLRSDDTAVYYCARSGYGNYYTMDYWGQGTTVTVSSGGGGSGGGGSGGGGSGGGGSDIVMTQSQKFMSTSVGDRVSITCKASQSVGNNVAWYQQKPGQSPKLLIYYASNRYTGVPDRFTGSGSGTDFTLTISNMQSEDLADYFCQQHYSSPSTFGGGTKLEIK | ≥ 90% | 4.16 nM | 1.12 nM | 32.3 nM | 0.904 nM | 0.97 nM | 0.917 nM |  |  |  |  |  |  |  |  |
| Hu003_13_F20_LA antibody (antibody, V domains shown) VH: QVQLQESGGGLVKPGGSLKLSCAASGFTFSSYYMSWVRQTPDKRLEWVATISNSGGSTYYPDSVKDRFTISRDNAKNTLYLQMSSLKSEDTAMYYCARDPYYTNYVPMDYWGQGTMVTVSS VL: DIVMTQSPSFLSASVGDRVTITCKASQYVDTYVAWYQQRPGKAPKPLIYSASTRHTGVPSRFSGSGSGTEFTLTISSLQPEDFATYFCAQYSSSPLTFGGGTKLELK |  |  |  |  |  |  |  | 10.7 nM | ~0.5 nM |  |  |  |  |  |  |
| Ch428003ct antibody (bispecific antibody, not shown: a dimerising Fc or GST) scFv 1: EVMLMESGGGLVKLGGSLKLSCAASGFTFSSYYMSWVRQTPEKRLEWVATISNSGGSIYYLDSVKDRFTISRDNAKNTLYLQMSSLNSEDTAVYYCARDPYYSNYVPMDYWGQGTSVTVSSGGGGSGGGGSGGGGSGGGGSSIVMTQTPKFMSTSVGDRVSVTCKASQYVDTYVAWYQQKPGQSPKPLIYSASTRHTGVPARFTGSGSGTDFTLTISNVQSEDLAEYFCAQYSSSPLTFGAGTKLELK scFv 2: QVQLQQSGPELVKPGDSVKMSCKASGYTFTDYYMDWVKQSHGKSLEWIGYIYPNNGGTSYNQKFKGKATLTVDKSSSTAYMELHSLTSEDSAVYYCARGGYYSYYSYDYWGQGTTLTVSSGGGGSGGGGSGGGGSGGGGSSIVMTQTPKFLPVSAGDRVTMTCKASQSVGNNVAWYQQKPGQSPKLLIYYASNRYTGVPDRFTGSGSGTDFTFTISSVQVEDLAVYFCQQHYSSPYTFGTGTKLEIK | ≥ 90% |  |  |  |  |  |  |  |  | 0.454 nM | 0.194 nM | 12.8 nM | 1.37 nM | 0.218 nM |  |
| Ch149003ct antibody (bispecific antibody, not shown: a dimerising Fc or GST) scFv 1: EVMLMESGGGLVKLGGSLKLSCAASGFTFSSYYMSWVRQTPEKRLEWVATISNSGGSIYYLDSVKDRFTISRDNAKNTLYLQMSSLNSEDTAVYYCARDPYYSNYVPMDYWGQGTSVTVSSGGGGSGGGGSGGGGSGGGGSSIVMTQTPKFMSTSVGDRVSVTCKASQYVDTYVAWYQQKPGQSPKPLIYSASTRHTGVPARFTGSGSGTDFTLTISNVQSEDLAEYFCAQYSSSPLTFGAGTKLELK scFv 2: QVQLQQSGPERVKPGDSVKMSCKASGYTFTDYYMDWVKQSHGKSLEWIGYIYPNNGGTSYNQKFKGKATLTVDKSSSTAYMELHSLTSEDSAVYYCARSGYGNYYTMDYWGQGTSVTVSAGGGGSGGGGSGGGGSGGGGSSIVMTQTPKFMPVSAGDRVTMTCKASQSVGNNVAWYQQKPGQSPKLLIYYASNRYTGVPDRFTGSGSGTDFTFTISSVQVEDLAVYFCQQHYSSPSTFGTGTKLEIK | ≥ 90% |  |  |  |  |  |  |  |  | 0.589 nM | 0.404 nM | 22.9 nM | 2.17 nM | 0.508 nM | 0.558 nM |
| Ch621003ct antibody (bispecific antibody, not shown: a dimerising Fc or GST) scFv 1: EVMLMESGGGLVKLGGSLKLSCAASGFTFSSYYMSWVRQTPEKRLEWVATISNSGGSIYYLDSVKDRFTISRDNAKNTLYLQMSSLNSEDTAVYYCARDPYYSNYVPMDYWGQGTSVTVSSGGGGSGGGGSGGGGSGGGGSSIVMTQTPKFMSTSVGDRVSVTCKASQYVDTYVAWYQQKPGQSPKPLIYSASTRHTGVPARFTGSGSGTDFTLTISNVQSEDLAEYFCAQYSSSPLTFGAGTKLELK scFv 2: QIQLQQSGPELVKPGDSVKMSCKASGYTFTDYYMDWVKQSHGKSLEWIGYIYPNNGGTSYNQKFKGKATLTVDKSSSTAYMELHSLTSEDSAVYYCARSGYKAYYAMDYWGQGTTLTVSSGGGGSGGGGSGGGGSGGGGSSIVMTQTPKFLPVSAGDRVTMTCKASQSVGNNVAWYQQKPGQSPKLLIYYASNRYTGVPDRFTGSGSGTDFTFTISSVQVEDLAVYFCQQHYSSPYTFGSGTKLEIK | ≥ 90% |  |  |  |  |  |  |  |  | 0.751 nM | 0.256 nM | 16.3 nM | 1.82 nM | 0.287 nM | 0.308 nM |
